According to paper PMC9352680, “A comprehensive thermodynamic model for RNA binding by the Saccharomyces cerevisiae Pumilio protein PUF4”:

T1: PUF4 RNA-binding domain (Saccharomyces cerevisiae, UniProt P25339 537-888)
T1 sequence: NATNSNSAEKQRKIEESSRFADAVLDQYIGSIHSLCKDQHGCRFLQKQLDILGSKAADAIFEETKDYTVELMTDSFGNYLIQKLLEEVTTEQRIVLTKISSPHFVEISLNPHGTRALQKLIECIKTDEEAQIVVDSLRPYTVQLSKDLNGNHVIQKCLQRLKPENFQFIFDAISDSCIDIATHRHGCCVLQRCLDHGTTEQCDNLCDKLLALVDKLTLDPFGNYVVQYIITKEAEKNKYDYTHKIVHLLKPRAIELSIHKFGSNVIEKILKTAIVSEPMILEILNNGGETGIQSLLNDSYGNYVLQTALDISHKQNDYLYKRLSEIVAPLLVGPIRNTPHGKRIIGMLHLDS

B1: Id_ii_S1_P3E.4_K3.3_C3.2_[C-2G]_H3.3_A3.1_F3.1_T3.2_[T9A]_[A10T] (ssRNA)
RNA: UCUCUUGUACACUAUAAUUCUCUU
B2: Id_ii_S1_P3E.4_K3.3_C3.2_[C-2T]_[T-1C]_H3.3_A3.1_F3.1_T3.2_[T9A]_[A10T] (ssRNA)
RNA: UCUCUUUCACACUAUAAUUCUCUU
B3: Id_ii_S1_P3E.4_K3.3_C3.2_[C-2G]_[T-1C]_H3.3_A3.1_F3.1_T3.2_[T9C]_[A10T] (ssRNA)
RNA: UCUCUUGCACACUAUACUUCUCUU
B4: Id_ii_S1_P3E.4_K3.3_C3.2_[C-2G]_[T-1C]_H3.3_A3.1_F3.1_T3.2_[T9C]_[A10G] (ssRNA)
RNA: UCUCUUGCACACUAUACGUCUCUU
B5: Id_ii_S1_P3E.4_K3.3_C3.2_[C-2T]_[T-1G]_H3.3_A3.1_F3.1_T3.2_[T9A]_[A10T] (ssRNA)
RNA: UCUCUUUGACACUAUAAUUCUCUU
B6: Id_ii_S1_P3E.4_K3.3_C3.2_[C-2G]_H3.3_A3.1_F3.1_T3.2 (ssRNA)
RNA: UCUCUUGUACACUAUAUAUCUCUU
B7: Id_ii_S1_P3E.4_K3.3_C3.2_[C-2T]_H3.3_A3.1_F3.1_T3.2_[T9C]_[A10C] (ssRNA)
RNA: UCUCUUUUACACUAUACCUCUCUU
B8: Id_ii_S1_P3E.4_K3.3_C3.2_[C-2G]_[T-1C]_H3.3_A3.1_F3.1_T3.2_[T9A]_[A10C] (ssRNA)
RNA: UCUCUUGCACACUAUAACUCUCUU
B9: Id_ii_S1_P3E.4_K3.3_C3.2_[C-2T]_[T-1A]_H3.3_A3.1_F3.1_T3.2_[T9C]_[A10G] (ssRNA)
RNA: UCUCUUUAACACUAUACGUCUCUU
B10: Id_ii_S1_P3E.4_K3.3_C3.2_[C-2G]_[T-1C]_H3.3_A3.1_F3.1_T3.2_[A10T] (ssRNA)
RNA: UCUCUUGCACACUAUAUUUCUCUU
B11: Id_ii_S1_P3E.4_K3.3_C3.2_[C-2G]_[T-1C]_H3.3_A3.1_F3.1_T3.2_[T9C] (ssRNA)
RNA: UCUCUUGCACACUAUACAUCUCUU
B12: Id_ii_S1_P3E.4_K3.3_C3.2_[C-2G]_H3.3_A3.1_F3.1_T3.2_[A10T] (ssRNA)
RNA: UCUCUUGUACACUAUAUUUCUCUU
B13: Id_ii_S1_P3E.4_K3.3_C3.2_[C-2T]_[T-1G]_H3.3_A3.1_F3.1_T3.2_[T9C] (ssRNA)
RNA: UCUCUUUGACACUAUACAUCUCUU
B14: Id_ii_S1_P3E.4_K3.3_C3.2_[C-2T]_H3.3_A3.1_F3.1_T3.2_[T9G]_[A10C] (ssRNA)
RNA: UCUCUUUUACACUAUAGCUCUCUU
B15: Id_ii_S1_P3E.4_K3.3_C3.2_[C-2G]_H3.3_A3.1_F3.1_T3.2_[T9C]_[A10C] (ssRNA)
RNA: UCUCUUGUACACUAUACCUCUCUU
B16: Ib_S1_P4E.1_K4.1_C4.1_H4.1_[G2T]_A4.1_[A6T]_F4.1_T4.1 (ssRNA)
RNA: UCUCUUUUUAUUUUAUCUCUU
B17: Ia_S1_P4E.1_K4.1_C4.1_H4.1_A4.1_[T7G]_F4.1_T4.1 (ssRNA)
RNA: UCUCUUUGUAUAGUAUCUCUU
B18: Ib_S1_P4E.1_K4.1_C4.1_H4.1_[G2A]_A4.1_[A6G]_F4.1_T4.1 (ssRNA)
RNA: UCUCUUUAUAUGUUAUCUCUU
B19: Id_ii_S1_P3E.4_K3.3_C3.2_[C-2G]_H3.3_A3.1_F3.1_T3.2_[A10C] (ssRNA)
RNA: UCUCUUGUACACUAUAUCUCUCUU
B20: Id_ii_S1_P3E.4_K3.3_C3.2_[C-2T]_[T-1C]_H3.3_A3.1_F3.1_T3.2_[A10T] (ssRNA)
RNA: UCUCUUUCACACUAUAUUUCUCUU
B21: Id_ii_S1_P3E.4_K3.3_C3.2_[C-2T]_H3.3_A3.1_F3.1_T3.2_[T9C]_[A10G] (ssRNA)
RNA: UCUCUUUUACACUAUACGUCUCUU
B22: Id_ii_S1_P3E.4_K3.3_C3.2_[C-2T]_[T-1G]_H3.3_A3.1_F3.1_T3.2_[T9A] (ssRNA)
RNA: UCUCUUUGACACUAUAAAUCUCUU
B23: Id_ii_S1_P3E.4_K3.3_C3.2_[C-2G]_H3.3_A3.1_F3.1_T3.2_[T9A]_[A10C] (ssRNA)
RNA: UCUCUUGUACACUAUAACUCUCUU
B24: Id_ii_S1_P3E.3_K3.2_C3.2_H3.2_A3.1_F3.1_T3.2 (ssRNA)
RNA: UCUCUUCUUAUAUAUAUAUCUCUU
B25: Id_ii_S1_P3E.4_K3.3_C3.2_[C-2G]_[T-1C]_H3.3_A3.1_F3.1_T3.2_[T9C]_[A10C] (ssRNA)
RNA: UCUCUUGCACACUAUACCUCUCUU
B26: Id_ii_S1_P3E.4_K3.3_C3.2_[C-2T]_[T-1C]_H3.3_A3.1_F3.1_T3.2_[T9A] (ssRNA)
RNA: UCUCUUUCACACUAUAAAUCUCUU
B27: Id_ii_S1_P3E.4_K3.3_C3.2_[C-2T]_[T-1C]_H3.3_A3.1_F3.1_T3.2_[T9C]_[A10C] (ssRNA)
RNA: UCUCUUUCACACUAUACCUCUCUU

Target: T1, PUF4 RNA-binding domain
Assay: Mg; RNA-MaP; 20 mM Na-HEPES pH 7.4, 30 mM KOAc, 0.75 mM MgCl2, 0.1% Tween-20, 5% glycerol, 0.1 mg/mL BSA, 2 mM DTT; 25 C; 0.0125-409.6 nM protein
Conditions: tags: N-His6-TEV cleaved; C-SNAP kept, Cy3B-labelled; label: tethered on chip by stalled RNA polymerase

| Binder | Kd [nM] |
| --- | --- |
| B1 | 1.16 |
| B2 | > 2300 |
| B3 | 122 |
| B4 | 671 |
| B5 | > 2300 |
| B6 | 0.819 |
| B7 | 1910 |
| B8 | 110 |
| B9 | > 2300 |
| B10 | 94.8 |
| B11 | 275 |
| B12 | 0.901 |
| B13 | > 2300 |
| B14 | > 2300 |
| B15 | 0.984 |
| B16 | > 2300 |
| B17 | 2.25 |
| B18 | 635 |
| B19 | 0.836 |
| B20 | > 2300 |
| B21 | 2060 |
| B22 | > 2300 |
| B23 | 1.63 |
| B24 | 394 |
| B25 | 278 |
| B26 | > 2300 |
| B27 | > 2300 |
